Data from PMC10209092.

Biological target: endogenous AMPKα (5'-adenosine monophosphate-activated protein kinase, α subunit), Q13131
Experiment: co-immunoprecipitation, quantified band intensity
Conditions: chain shown with the change, n=2 (WT n=3), read off a plot

Chain of endogenous AMPKα (5'-adenosine monophosphate-activated protein kinase, α subunit), Q13131 (Q13131 whole entry): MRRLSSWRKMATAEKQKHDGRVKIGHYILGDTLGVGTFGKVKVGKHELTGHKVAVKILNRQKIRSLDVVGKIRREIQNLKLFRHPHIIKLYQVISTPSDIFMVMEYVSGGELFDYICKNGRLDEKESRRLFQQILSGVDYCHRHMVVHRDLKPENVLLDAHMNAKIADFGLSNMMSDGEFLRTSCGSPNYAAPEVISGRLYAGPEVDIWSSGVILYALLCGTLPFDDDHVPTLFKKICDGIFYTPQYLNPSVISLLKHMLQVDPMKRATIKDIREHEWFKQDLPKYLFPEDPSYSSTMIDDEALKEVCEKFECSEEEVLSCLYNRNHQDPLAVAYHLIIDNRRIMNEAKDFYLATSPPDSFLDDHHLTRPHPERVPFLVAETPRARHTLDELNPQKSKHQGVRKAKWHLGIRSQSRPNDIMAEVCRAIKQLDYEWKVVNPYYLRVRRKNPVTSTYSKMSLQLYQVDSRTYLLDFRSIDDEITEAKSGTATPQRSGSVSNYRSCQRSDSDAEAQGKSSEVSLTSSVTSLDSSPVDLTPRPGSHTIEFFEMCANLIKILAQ

- response (relative AMPK-ULK1 interaction) (amino acids +, A769662 +, parent: est. 1.2): 1
- response (relative AMPK-ULK1 interaction) (amino acids +, A769662 -, parent: est. 1.0): 0.4
- response (relative AMPK-ULK1 interaction) (amino acids -, A769662 +, parent: est. 1.1): 0.15
- response (relative AMPK-ULK1 interaction) (amino acids -, A769662 -, parent: est. 0.25): 0.1
B1: myc-tagged ULK1 (UNC-51 like kinase 1), wild type, O75385 S556A; T660A (protein)
chain: MEPGRGGTETVGKFEFSRKDLIGHGAFAVVFKGRHREKHDLEVAVKCINKKNLAKSQTLLGKEIKILKELKHENIVALYDFQEMANSVYLVMEYCNGGDLADYLHAMRTLSEDTIRLFLQQIAGAMRLLHSKGIIHRDLKPQNILLSNPAGRRANPNSIRVKIADFGFARYLQSNMMAATLCGSPMYMAPEVIMSQHYDGKADLWSIGTIVYQCLTGKAPFQASSPQDLRLFYEKNKTLVPTIPRETSAPLRQLLLALLQRNHKDRMDFDEFFHHPFLDASPSVRKSPPVPVPSYPSSGSGSSSSSSSTSHLASPPSLGEMQQLQKTLASPADTAGFLHSSRDSGGSKDSSCDTDDFVMVPAQFPGDLVAEAPSAKPPPDSLMCSGSSLVASAGLESHGRTPSPSPPCSSSPSPSGRAGPFSSSRCGASVPIPVPTQVQNYQRIERNLQSPTQFQTPRSSAIRRSGSTSPLGFARASPSPPAHAEHGGVLARKMSLGGGRPYTPSPQVGTIPERPGWSGTPSPQGAEMRGGRSPRPGSSAPEHSPRTSGLGCRLHAAPNLSDLHVVRPKLPKPPTDPLGAVFSPPQASPPQPSHGLQSCRNLRGSPKLPDFLQRNPLPPILGSPTKAVPSFDFPKTPSSQNLLALLARQGVVMTPPRNRALPDLSEVGPFHGQPLGPGLRPGEDPKGPFGRSFSTSRLTDLLLKAAFGTQAPDPGSTESLQEKPMEIAPSAGFGGSLHPGARAGGTSSPSPVVFTVGSPPSGSTPPQGPRTRMFSAGPTGSASSSARHLVPGPCSEAPAPELPAPGHGCSFADPITANLEGAVTFEAPDLPEETLMEQEHTEILRGLRFTLLFVQHVLEIAALKGSASEAAGGPEYQLQESVVADQISLLSREWGFAEQLVLYLKVAELLSSGLQSAIDQIRAGKLCLSSTVKQVVRRLNELYKASVVSCQGLSLRLQRFFLDKQRLLDRIHSITAERLIFSHAVQMVQSAALDEMFQHREGCVPRYHKALLLLEGLQHMLSDQADIENVTKCKLCIERRLSALLTGICA
